The values that follow come from US20260232828A1, “LIGAND-CYTOTOXICITY DRUG CONJUGATES AND PHARMACEUTICAL USES THEREOF” (HANSOH BIO LLC, priority 2023, published 2026).

The target of assay [1] is human CDH17 as originally expressed in cells (cell surface CDH17 on AsPC1, GP2d and other cancer cell lines) (human) (UniProt Q12864). Nature of the assay: flow cytometry competition on AsPC1 cells: unlabelled HBMAB81 0.03-1800 nM against 0.97 nM HBMAB81-AF647, MFI. On the technique in general: In flow cytometry, cells or beads pass a laser one at a time.
In assay [2] the target is human CDH17 His Tag (Sino biological, catalog number 11360-H08H) (human) (UniProt Q12864). Nature of the assay: Octet BLI, antibody on AHC biosensor, antigen in solution. For orientation: BLI is a label-free optical method that tracks binding on a fibre tip over time.
The target of assay [3] is human CDH17 as originally expressed in cells (cell surface CDH17 on AsPC1, GP2d and other cancer cell lines) (human) (UniProt Q12864). Nature of the assay: flow cytometry, labelled antibody on AsPC1 cells.
Assay [4] addresses T1, human CDH17 His Tag (Sino biological, catalog number 11360-H08H) (human, UniProt Q12864 23-787).
T1 construct: Bought recombinant protein; also called hCDH17; human CDH17 protein; not shown: His tag
Nature of the assay: Octet BLI, antibody on AHC biosensor, antigen in solution. As for the experimental part: (§1) The affinity between CDH17 antibodies and CDH17 antigens and homologues was determined by Octet (Octet Red 384) instrument. Anti-hIgG Fc Capture (AHC) Biosensors were selected, and the sensors were balanced with buffer solution for 10 min. Subsequently, sensors were dipped into the wells containing 1 μg/ml of CDH17 lead antibodies to load onto the probes. The excess unbound antibodies were washed off. The antigen binding was performed in the wells containing serially diluted human CDH17-His tag (Sino biological, catalog number 11360-H08H), cynomolgus CDH17-His tag (Acro Biosystems, catalog number CA7-C52H4), homologs human CDH6-His tag (Acro Biosystems, catalog number CA6-H5229) and human CDH16-His tag (Sino biological, catalog number 10915-H08H), with concentration ranging from 200 nM to 3.1 nM, for 5 min. Then probes were dipped into wells containing renewed buffer to initiate the dissociation for another 15 min.

Assay [5] deals with T2, human CDH17 as originally expressed in cells (cell surface CDH17 on AsPC1, GP2d and other cancer cell lines) (human, UniProt Q12864 23-832).
T2 construct: whole, on cells; Endogenous CDH17 on human cancer cell lines; AsPC1 and GP2d are named CDH17 positive; also called CDH17 positive AsPC1 cells; GP2d cells
Nature of the assay: flow cytometry titration on CDH17 positive AsPC1 cells. As to the method: (§2) To determine the binding of recombinant antibody to cell surface CDH17 receptors, cells were first harvested and resuspended in cell staining buffer (BioLegend, Cat #420201) at 1.3-1.5×10⁶ cells/mL. Then, the cells were treated with human Fc receptor blocking reagent (BioLegend, Cat #422302) on the ice for 10 min. The resulting cell suspension was aliquoted into 50 μL aliquots. […] The cells were incubated on the ice for 1 hour and then washed with cell staining buffer twice. 50 μL of secondary antibody (PE conjugated goat anti-human Fc, eBioscience™, 1:250 dilution) was added to each sample to resuspend the cells. The cells were incubated on the ice for another 20 min. Cells were subsequently washed twice with cell staining buffer and resuspended in 4% PFA to fix the cells. The samples were analyzed using iQue3 to measure the median fluorescence intensity using corresponding channels.

The target of assay [6] is cynomolgus CDH17-His tag (Acro Biosystems, catalog number CA7-C52H4) (cynomolgus). Nature of the assay: Octet BLI, antibody on AHC biosensor, antigen in solution.
Assay [7] deals with T3, human CDH6-His tag (Acro Biosystems, catalog number CA6-H5229) (human, UniProt P55285 54-615).
T3 construct: Bought recombinant protein; also called hCDH6; not shown: His tag
T3 sequence (looked up): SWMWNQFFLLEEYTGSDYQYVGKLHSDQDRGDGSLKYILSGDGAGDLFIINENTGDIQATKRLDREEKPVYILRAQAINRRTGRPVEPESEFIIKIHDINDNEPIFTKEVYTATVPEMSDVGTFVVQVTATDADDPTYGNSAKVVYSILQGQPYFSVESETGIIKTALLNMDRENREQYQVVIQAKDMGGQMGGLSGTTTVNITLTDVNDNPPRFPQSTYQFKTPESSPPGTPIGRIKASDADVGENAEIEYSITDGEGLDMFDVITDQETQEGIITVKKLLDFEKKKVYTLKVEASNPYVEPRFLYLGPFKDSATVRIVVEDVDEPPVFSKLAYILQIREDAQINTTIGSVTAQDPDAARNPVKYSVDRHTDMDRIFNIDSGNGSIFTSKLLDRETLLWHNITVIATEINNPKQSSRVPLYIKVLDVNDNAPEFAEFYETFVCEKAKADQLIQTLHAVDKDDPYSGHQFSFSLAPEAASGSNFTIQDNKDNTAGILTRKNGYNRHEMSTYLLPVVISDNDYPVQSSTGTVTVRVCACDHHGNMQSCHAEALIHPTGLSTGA
Nature of the assay: Octet BLI, antibody on AHC biosensor, antigen 200 nM to 3.1 nM. As for the experimental part:
as §1

Assay [8] has as its target T4, human CDH16-His tag (Sino biological, catalog number 10915-H08H) (human, UniProt O75309 19-786).
T4 construct: Bought recombinant protein; also called hCDH16; not shown: His tag
T4 sequence (looked up): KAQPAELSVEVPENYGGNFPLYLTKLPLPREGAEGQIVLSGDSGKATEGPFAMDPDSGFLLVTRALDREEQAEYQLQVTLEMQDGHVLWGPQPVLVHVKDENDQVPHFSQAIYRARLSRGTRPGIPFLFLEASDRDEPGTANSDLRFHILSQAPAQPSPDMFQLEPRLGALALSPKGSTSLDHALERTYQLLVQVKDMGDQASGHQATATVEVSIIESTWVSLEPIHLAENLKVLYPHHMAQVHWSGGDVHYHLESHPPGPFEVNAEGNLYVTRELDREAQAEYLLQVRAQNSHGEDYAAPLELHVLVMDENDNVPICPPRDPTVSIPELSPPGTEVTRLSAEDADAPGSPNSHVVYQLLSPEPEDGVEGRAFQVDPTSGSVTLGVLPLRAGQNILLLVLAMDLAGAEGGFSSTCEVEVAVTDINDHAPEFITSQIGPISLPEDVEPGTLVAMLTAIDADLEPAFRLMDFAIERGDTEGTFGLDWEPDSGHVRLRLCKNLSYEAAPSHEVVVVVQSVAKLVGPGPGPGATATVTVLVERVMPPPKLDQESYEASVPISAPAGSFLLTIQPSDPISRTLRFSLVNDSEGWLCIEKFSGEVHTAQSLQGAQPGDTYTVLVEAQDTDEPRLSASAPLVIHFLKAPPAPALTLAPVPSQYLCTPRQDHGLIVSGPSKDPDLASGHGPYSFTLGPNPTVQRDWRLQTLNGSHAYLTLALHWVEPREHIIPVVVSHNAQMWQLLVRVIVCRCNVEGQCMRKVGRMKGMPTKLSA
The description is as above. As to the method: as §1

The target in assay [9] is T2, human CDH17 as originally expressed in …. Nature of the assay: cell-based or functional assay.
The target is the same in assay [10]. Nature of the assay: flow cytometry titration of recombinant human IgG1 on CDH17-positive AsPC1 cells, 0.001-200 nM, PE anti-human Fc, MFI. As for the experimental part: as §2

On to “HBMAB-81, reformatted mAb with the CDH17 binding arm from bispecific antibody BI 905771 and human IgG1 backbone”, for which, in assay [1], the IC50 (read off the curve) amounted to 0.3 nM. In assay [2], this molecule yielded a Kd of 4 nM, an off-rate (koff) of 0.00136 s⁻¹ and a kon of 340000 M⁻¹ s⁻¹.

As to “HBMAB81-AF647 (HBMAB81 mAb labeled with Alexa Flour 647) (antibody)”, the EC80 in [3] is 0.97 nM.

B1: 14B12 anti-CDH17 recombinant antibody (human IgG1) (antibody, V domains shown)
VH: QVQLQESGPGLVKPSETLSLTCTVSGGSINTYYRSWIRQPPGKGLEWIGYIYYSGNTNYNPSLKSRVTISADTSKNQFSLNLISVTAADTAMYYCARAQYGEEAFDIWGQGTLVTVSS
VL: DIQMTQSPSSLSASVGDRVTITCRASQSITTYLNWYQQKPGKAPQLLIFAASRLQTGVPSRFSGSGSGTDFTLTISSLLPGDFATYYCQQSYNTPPTFGGGTKVEIKR
Regarding B1, the figures for the dissociation constant Kd in [4], in assay [5] and in assay [6] were 2.2 nM, 0.07 nM and 2.5 nM, respectively. The results for the koff in [4] and in [6] were 0.000507 s⁻¹ and 0.00016 s⁻¹, respectively. Further, the kon in assay [4] was determined as 230000 M⁻¹ s⁻¹; in [6] it was 620000 M⁻¹ s⁻¹. Moreover, the binding result in assay [7] and in assay [8] was “no binding (tested: 200 nM)” each time. Besides, the “IC50 of indirect killing assay to evaluate the internalization in AsPC1 cells” value (shortened to “IC50 of indirect killing assay”) in assay [9] was determined as 0.09 nM.

B2: 10E11 anti-CDH17 recombinant antibody (human IgG1) (antibody, V domains shown)
VH: EVQLVQSGTEVKKPGESLKISCKDSGYRFSSYWIGWVRQMPGKGLEWMGIIYPGDSDTRYSPSFQGQVTISADKSISTAYLQWRSLKASDTAMYYCARRGWVNYFDYWGQGTLVTVSS
VL: DIQMTQSPSSVSASVGDRVTITCRASQGISNWLGWYQQKPGKAPKLLIYAASSLQSGVPSRFSGSGSGTDFTLTISSLQPEDFATYYCQQANSFPLTFGGGTKVEIKR
In the case of B2, the Kd in assay [4] was 14.2 nM; in assay [5], 0.1 nM; in [6], 15 nM. Also, the results for the koff in assay [4] and in [6] were 0.00138 s⁻¹ and 0.0012 s⁻¹, respectively. Also, the kon in [4] is 97500 M⁻¹ s⁻¹; in assay [6] it was 80000 M⁻¹ s⁻¹. Besides, the binding result in assay [7] and in assay [8] was “no binding (tested: 200 nM)” each time. For the same molecule, the “IC50 of indirect killing assay” value in assay [9] came out at 0.08 nM.

B3: 15A4 anti-CDH17 recombinant antibody (human IgG1) (antibody, V domains shown)
VH: QVQLVESGGGVVQPGRSLRLSCAASGFNFSSYGMHWVRQAPGKGLEWVAFVWYDGSNQNYADSVKGRFTISRDNSNNTLYLQMNSLRAEDTAVYYCARDRYSSGWDVFDYWGQGTLVTVSS
VL: DIQMTQSPSSVSASVGDRVTITCRASQGISSWLAWYQQKPGKAPKLLIFAASSLQSGVPSRFSGSGSGTGFTLTISSLQPEDFATYYCQQAKSFPPTFGQGTKVEIKR
Consider B3, for which the “EC50 (read off the curve)” value in assay [10] was ~3 nM. The Kd in [5] was 2.32 nM. Also, the “IC50 of indirect killing assay” value in assay [9] was 1.99 nM.

B4: 4F9 anti-CDH17 recombinant antibody (human IgG1) (antibody, V domains shown)
VH: QVQLQESGPGLVKPSGTLSLTCAVSGGSISSSNWWSWVRQPPGKGLEWIGEIYHSGSTSYNPSLKSRVTISVDKSKNQFSLKLSSVTAADTAVYYCARNDWGFPLDCWGQGTLVTVSS
VL: DIQMTQSPSSLSASVGDRVTITCRASQSISSYLNWYQQKPGKAPKLLIYAASSLQSGVPSRFSGSGSGTHFTLTISSLQPEDFATYYCQQSHNIPITFGQGTRLEIKR
With B4, the “EC50 (read off the curve)” value in [10] is ~2 nM. The molecule also showed a Kd in assay [5] of 1.69 nM. The “IC50 of indirect killing assay” value in [9] turned out to be 0.29 nM.

Usually Kd stands for a measure of binding affinity in units of concentration. A high value points to weaker binding. A word on the koff: it is the rate constant with which the complex falls apart. A high value points to fast dissociation. In general, kon refers to the second-order rate constant of association. By EC80 is commonly meant the concentration at which the effect reaches the 80% level. What is called EC50 (read off the curve) is the concentration at which the effect is half-maximal.
